Test results reported in patent US20250270314A1 (TAVOTEK BIOTECH SUZHOU, published 2025).

T1: human CDH17 on AGS gastric cancer cells and AsPC-1 pancreatic cancer cells (human, UniProt Q12864 23-832)
T1 construct: Native CDH17 on the surface of cancer cell lines; also called CDH17 expressing AGS cells; CDH17 expressing AsPC-1 pancreatic cancer cells
T1 sequence: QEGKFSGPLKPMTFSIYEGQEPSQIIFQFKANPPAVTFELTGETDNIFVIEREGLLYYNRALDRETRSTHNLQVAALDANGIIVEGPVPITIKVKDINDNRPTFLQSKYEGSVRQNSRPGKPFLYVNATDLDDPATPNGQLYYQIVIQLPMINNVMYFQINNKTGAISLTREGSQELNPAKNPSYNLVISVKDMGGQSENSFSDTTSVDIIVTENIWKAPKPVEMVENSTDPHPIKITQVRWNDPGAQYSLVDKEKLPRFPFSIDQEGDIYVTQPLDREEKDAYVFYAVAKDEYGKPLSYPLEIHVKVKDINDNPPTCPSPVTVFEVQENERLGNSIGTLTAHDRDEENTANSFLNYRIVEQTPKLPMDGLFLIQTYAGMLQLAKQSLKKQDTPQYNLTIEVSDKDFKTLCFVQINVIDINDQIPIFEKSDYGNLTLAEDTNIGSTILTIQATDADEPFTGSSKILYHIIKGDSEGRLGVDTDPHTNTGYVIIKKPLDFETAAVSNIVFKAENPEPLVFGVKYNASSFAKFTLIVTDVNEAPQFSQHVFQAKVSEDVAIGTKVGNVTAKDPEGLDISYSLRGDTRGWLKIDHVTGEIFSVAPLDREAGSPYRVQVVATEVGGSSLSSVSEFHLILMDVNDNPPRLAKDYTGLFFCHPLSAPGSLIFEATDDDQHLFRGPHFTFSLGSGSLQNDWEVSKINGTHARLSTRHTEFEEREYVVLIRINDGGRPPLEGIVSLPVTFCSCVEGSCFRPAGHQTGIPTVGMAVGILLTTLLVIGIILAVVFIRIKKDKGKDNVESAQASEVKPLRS

T2: recombinant human CDH17 (R&D systems) (human, UniProt Q12864 23-787)
T2 construct: Bought recombinant protein coated on the ELISA plate; also called human Cadherin-17
T2 sequence: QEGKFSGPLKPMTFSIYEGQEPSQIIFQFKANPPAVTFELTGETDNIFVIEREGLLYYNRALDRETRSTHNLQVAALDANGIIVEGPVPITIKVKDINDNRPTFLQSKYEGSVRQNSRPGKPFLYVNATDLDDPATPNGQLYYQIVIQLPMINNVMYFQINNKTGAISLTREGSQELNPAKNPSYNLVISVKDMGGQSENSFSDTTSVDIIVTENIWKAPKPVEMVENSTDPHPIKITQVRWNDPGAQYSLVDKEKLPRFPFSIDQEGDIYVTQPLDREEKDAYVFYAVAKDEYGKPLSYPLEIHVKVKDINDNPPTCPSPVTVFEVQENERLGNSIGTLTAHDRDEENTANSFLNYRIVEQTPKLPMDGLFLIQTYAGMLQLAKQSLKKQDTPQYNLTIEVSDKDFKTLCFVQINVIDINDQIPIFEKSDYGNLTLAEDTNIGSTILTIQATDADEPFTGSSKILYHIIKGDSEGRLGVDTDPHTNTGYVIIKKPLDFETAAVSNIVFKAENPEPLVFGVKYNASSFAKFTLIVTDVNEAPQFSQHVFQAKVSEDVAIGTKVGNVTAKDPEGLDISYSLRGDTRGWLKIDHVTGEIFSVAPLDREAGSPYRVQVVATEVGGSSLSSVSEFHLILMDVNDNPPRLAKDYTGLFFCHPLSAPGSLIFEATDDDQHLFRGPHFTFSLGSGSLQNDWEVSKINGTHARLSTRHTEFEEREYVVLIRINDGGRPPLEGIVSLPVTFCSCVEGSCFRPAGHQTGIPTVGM


Legend:
[1] = target: T1, human CDH17 on AGS gastric cancer cells …; assay: flow cytometry on AGS and AsPC-1 cells
[2] = target: T2, recombinant human CDH17 (R&D systems); assay: ELISA, recombinant human CDH17
Description: (§1) ELISA-based binding assay was employed to evaluate the binding to CDH17 by anti-CDH17 antibodies. In this assay, 100 μL of […] recombinant human CDH17 (R&D systems) was coated on an ELISA plate. Increasing concentrations of masked and reference mAbs were applied on the plate and their binding to the recombinant human proteins were detected by HRP-conjugated anti-human secondary antibody. […] The expressed anti-CDH17 mAbs had potent binding to CDH17. The anti-CDH17 were tested for binding to AGS gastric cancer cells and AsPC-1 pancreatic cancer cells.

[3] = target: T2, recombinant human CDH17 (R&D systems); assay: ELISA, plate coated with recombinant human CDH17
Description: as §1

binding result [1]	binding result [2]	binding result [3]	Binder
–	–	binds	CDH17 v4 (antibody, V domains shown, typical human IgG heavy and light chain bands on SDS-PAGE) VH: EVQLQQSVAELVKPGASVKMSCKVSGYTLTDHTIHWMKQRPEQGLEWIGYIYPRDGITGYNEKFKGKATLTADTSSSTAYMQLNSLTSEDSAVYFCARWGYSYRNYAYYYDYWGQGTTLTVSS VL: DIVMTQSQKFMSTTVGDRVNITCKASQNVGTAVAWYQQKPGQSPKLLIYSASNRYTGVPDRFTGSGSGTDFTLTITNMQSKDLADYFCQQYSSYPWTFGGGTKLEIK
–	–	binds	CDH17 v6 (antibody, V domains shown, typical human IgG heavy and light chain bands on SDS-PAGE) VH: QVQLQQSDAELVKPGASVKISCKVSGYTFTDHTIHWMKQRPEQGLEWIGYIYPRDVITQYNEKFKGKATLTADKSSSTAYMQLNSLTSEDSAVYLCARWGYFYGSRSYYFDYWGQGTTLTVSS VL: DIVMTQSQKFMSTTVGDRVNITCKASQNVGTAVAWYQQKPGQSPKLLIYSASNRYTGVPDRFTGSGSGTDFTLTITNMQSKDLADYFCQQYSSYPWTFGGGTKLEIK
–	–	binds	CDH17 v2 (antibody, human IgG1, V domains shown, described as human IgG1 monoclonal antibody; also called anti-CDH17 v2) VH: QVQLVQSGAEVKKPGSSVKVSCKVSGYTFTDHTIHWMKQRPGQGLEWIGYIYPRDVITQYNEKFKGKVTLTADKSTSTAYMELSSLRSEDTAVYLCARWGYFYGSRSYYFDYWGQGTTVTVSS VL: DIVMSQSPSSLAVSVGEKVTMSCKSSQSLLHSSNQKNYLAWYQQKPGQSPKVLIYWASTRESGVPDRFTGSGSGTDFTLTITSVKSEDLAVYYCQQYYSYPWTFGGGTRLEIK
–	–	binds	CDH17 v5 (antibody, V domains shown, typical human IgG heavy and light chain bands on SDS-PAGE) VH: QVQLVQSGAEVKKPGSSVKVSCKVSGYTFTDHTIHWMKQRPGQGLEWIGYIYPRDVITQYNEKFKGKVTLTADKSTSTAYMELSSLRSEDTAVYLCARWGYFYGSRSYYFDYWGQGTTVTVSS VL: DIVMTQSQKFMSTTVGDRVNITCKASQNVGTAVAWYQQKPGQSPKLLIYSASNRYTGVPDRFTGSGSGTDFTLTITNMQSKDLADYFCQQYSSYPWTFGGGTKLEIK
–	–	binds	CDH17 v3 (antibody, V domains shown, typical human IgG heavy and light chain bands on SDS-PAGE) VH: QVQLQQSDAELVKPGASVKISCKVSGYTFTDHTIHWMKQRPEQGLEWIGYIYPRDVITQYNEKFKGKATLTADKSSSTAYMQLNSLTSEDSAVYLCARWGYFYGSRSYYFDYWGQGTTLTVSS VL: DIVMSQSPSSLAVSVGEKVTMSCKSSQSLLHSSNQKNYLAWYQQKPGQSPKVLIYWASTRESGVPDRFTGSGSGTDFTLTITSVKSEDLAVYYCQQYYSYPWTFGGGTRLEIK

The next lines start with the binder.

Binder	binding result [1]	binding result [2]	binding result [3]
VHO v366 (VHH, Variable-heavy-only (VHO) single domain; also called TS00366) VHH: EVQLLESGGGLVQPGGSLRLSCAASGFTFSDYWMSWVRQAPGKGLEWVSNINGDGGSTYYADSVKGRFTISRDNSKNTLYLQMNSLRAEDTAVYYCAKTSTFYKQDKFDYWGQGTLVTVSS	binds	binds	–
VHO v358 (VHH, Variable-heavy-only (VHO) single domain; also called TS00358) VHH: EVQLLESGGGLVQPGGSLRLSCAASGFTFSDYWMSWVRQAPGKGLEWVSNISGDGGSTYYADSVKGRFTISRDNSKNTLYLQMNSLRAEDTAVYYCAKTTDLLQGAFDYWGQGTLVTVSS	binds	binds	–
VHO v364 (VHH, Variable-heavy-only (VHO) single domain; also called TS00364; CDH17-VHO364) VHH: EVQLLESGGGLVQPGGSLRLSCAASGFTFSDYWMSWVRQAPGKGLEWVSNISGSGGSTYYADSVKGRFTISRDNSKNTLYLQMNSLRAEDTAVYYCAKTSDWLLHDADLHFDYWGQGTLVTVSS	binds	binds	–
VHO v363 (VHH, Variable-heavy-only (VHO) single domain; also called TS00363) VHH: EVQLLESGGGLVQPGGSLRLSCAASGFTFSTYWMSWVRQAPGKGLEWVSNISQDGGSTYYADSVKGRFTISRDNSKNTLYLQMNSLRAEDTAVYYCAKTTDWLQDKVDEAFDYWGQGTLVTVSS	binds	binds	–
